The values below are quoted from earlier work in article PMC7103376.

One may read the pKd as −log10 of the Kd, conventionally taken in molar units.

For this data set, the target named is 3CLpro (SARS coronavirus) (UniProt P0C6X7).

pKd: −log10 of the molar value.

For 3CLpro (from UniProt P0C6X7), the pKd was above 7.00.
